T1: AP180 (rat (endogenous in rat brain …, UniProt Q05140 1-915))
T1 construct: AP180 (clathrin coat assembly protein), endogenous in rat brain synaptosomes; source: endogenous, rat brain synaptosome lysate
T1 sequence (looked up): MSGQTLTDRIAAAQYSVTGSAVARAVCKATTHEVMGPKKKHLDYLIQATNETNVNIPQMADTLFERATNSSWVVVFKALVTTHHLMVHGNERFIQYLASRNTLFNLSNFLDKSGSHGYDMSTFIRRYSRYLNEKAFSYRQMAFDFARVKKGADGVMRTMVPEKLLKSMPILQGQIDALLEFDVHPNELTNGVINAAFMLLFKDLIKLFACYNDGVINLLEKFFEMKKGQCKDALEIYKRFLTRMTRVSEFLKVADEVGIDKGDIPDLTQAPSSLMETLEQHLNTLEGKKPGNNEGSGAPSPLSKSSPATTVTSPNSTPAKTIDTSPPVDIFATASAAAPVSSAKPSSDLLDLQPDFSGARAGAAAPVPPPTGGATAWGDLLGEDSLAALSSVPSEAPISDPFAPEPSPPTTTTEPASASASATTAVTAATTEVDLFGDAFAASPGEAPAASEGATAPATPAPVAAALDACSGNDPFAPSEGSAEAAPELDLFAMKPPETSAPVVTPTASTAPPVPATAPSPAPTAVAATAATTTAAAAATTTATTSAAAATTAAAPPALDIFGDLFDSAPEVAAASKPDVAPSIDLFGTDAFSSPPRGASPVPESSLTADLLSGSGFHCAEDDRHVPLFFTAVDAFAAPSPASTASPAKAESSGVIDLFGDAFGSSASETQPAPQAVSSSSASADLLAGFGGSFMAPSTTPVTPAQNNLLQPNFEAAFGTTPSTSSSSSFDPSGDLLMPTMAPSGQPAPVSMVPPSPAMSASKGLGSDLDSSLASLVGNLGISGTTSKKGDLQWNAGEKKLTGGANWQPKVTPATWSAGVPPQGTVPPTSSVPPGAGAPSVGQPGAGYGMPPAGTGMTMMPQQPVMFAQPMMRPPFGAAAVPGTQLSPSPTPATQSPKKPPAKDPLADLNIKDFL

B1: stonin2 (natural protein, UniProt D4AB66 1-895, looked up)
chain: MTTLDHVIATHQSEWVSFSEEPLFPTPLEGGTEEHFPGLSSSSDRSESSSGENHAVDEGSQDLSHSEQDDSSEKMGLISEAASPPGSPVQPTPDLASAISNWVQFEDDTPWSNTSAPHKETALTLTVPCWTCPSLDSLRRCPLASESSWTTHSEDTSSPSVAPSYTDLQLINAEEQASGRASGTDSTDNSSSLQEDEEVEMETISWWAGSPAMNGHPAVPQVTTARFPSWVTFEDNEVGCPSPTVPSPKKPNAPSAATAGPDVPFNSTGSFKRDRPKSTLMNLSKVQKLDISSLNRPPSVTEAPPWRATNPFLNESLQDIQPSPINPFSAFFEEQERRSQNSSISGTSGKSQRDSLIVIYQDAISFDDSGKSQSHPDAIEKLKQLQIDDPDPVGNAALPDDDPTASVEPDAPSPTSALSQPRDGWPMMLRIPEKKNIMSSRHWGPIYIKLTDSGYLQLYYEQGLEKPFREFKLEICHEVSEPRLQNYDENGRIHSLRIDRVTYKEKKKYQPKPAVAHAAEREQVIKLGTTNYDDFLSFIHAVQDRLMDLPVQSMDLSTVGLNYLEEEITVDIRDEFSGTVSKGDNQILQHHVLTRIHILSFLSGLAECRLGLNDILIKGNEIVSRQDIMPTTTTKWIKLHECRFHGCVDEDVFNSSRVILFNPLDACRFELMRFRTVFAEKTLPFTLRTAASINGAEVEVQSWLRMSPGFSSNRDPLTQVPCENVMVRYPVPSEWVKNFRRESVLGEKSLKAKVNRGASFGSAGASGSEPVMRVTLGTAKYEHAFNSIVWRINRLPDKNSASGHPHCFFCHLELGSDREVPSRFANHVNVEFSMPTTSASKAAVRSISVEDKPDVRKWVNYSAHYSYKVEIEQKKSLKPDFEGEDLENPKECGVQ
notes: stonin 2, endogenous in rat brain synaptosomes; source: endogenous, rat brain synaptosome lysate

Key:
Test in all cases: co-IP; fractional recovery: immunoprecipitate from rat brain synaptosome lysate on beads split in three aliquots, 15 min on ice in RIPA buffer with 150, 650 or 1150 mM total salt; what stayed on the beads found by Western blot and densitometry; FR = recovery at 1150 mM / recovery at 150 mM, normalised to the FR of the IP-protein
[1] = target: stonin2 (rat (endogenous in rat brain synaptosomes)) (UniProt D4AB66)
stonin2 = target: B1; details: partners not purified
AP180 = target: T1, AP180; details: partners not purified
heavy chain clathrin = target: T2, heavy chain clathrin (rat (endogenous in rat brain …, UniProt P11442 1-1675)); details: partners not purified
T2 construct: clathrin heavy chain, endogenous in rat brain synaptosomes; also called H-clathrin; H-Cl; source: endogenous, rat brain synaptosome lysate
T2 sequence (P11442 whole entry): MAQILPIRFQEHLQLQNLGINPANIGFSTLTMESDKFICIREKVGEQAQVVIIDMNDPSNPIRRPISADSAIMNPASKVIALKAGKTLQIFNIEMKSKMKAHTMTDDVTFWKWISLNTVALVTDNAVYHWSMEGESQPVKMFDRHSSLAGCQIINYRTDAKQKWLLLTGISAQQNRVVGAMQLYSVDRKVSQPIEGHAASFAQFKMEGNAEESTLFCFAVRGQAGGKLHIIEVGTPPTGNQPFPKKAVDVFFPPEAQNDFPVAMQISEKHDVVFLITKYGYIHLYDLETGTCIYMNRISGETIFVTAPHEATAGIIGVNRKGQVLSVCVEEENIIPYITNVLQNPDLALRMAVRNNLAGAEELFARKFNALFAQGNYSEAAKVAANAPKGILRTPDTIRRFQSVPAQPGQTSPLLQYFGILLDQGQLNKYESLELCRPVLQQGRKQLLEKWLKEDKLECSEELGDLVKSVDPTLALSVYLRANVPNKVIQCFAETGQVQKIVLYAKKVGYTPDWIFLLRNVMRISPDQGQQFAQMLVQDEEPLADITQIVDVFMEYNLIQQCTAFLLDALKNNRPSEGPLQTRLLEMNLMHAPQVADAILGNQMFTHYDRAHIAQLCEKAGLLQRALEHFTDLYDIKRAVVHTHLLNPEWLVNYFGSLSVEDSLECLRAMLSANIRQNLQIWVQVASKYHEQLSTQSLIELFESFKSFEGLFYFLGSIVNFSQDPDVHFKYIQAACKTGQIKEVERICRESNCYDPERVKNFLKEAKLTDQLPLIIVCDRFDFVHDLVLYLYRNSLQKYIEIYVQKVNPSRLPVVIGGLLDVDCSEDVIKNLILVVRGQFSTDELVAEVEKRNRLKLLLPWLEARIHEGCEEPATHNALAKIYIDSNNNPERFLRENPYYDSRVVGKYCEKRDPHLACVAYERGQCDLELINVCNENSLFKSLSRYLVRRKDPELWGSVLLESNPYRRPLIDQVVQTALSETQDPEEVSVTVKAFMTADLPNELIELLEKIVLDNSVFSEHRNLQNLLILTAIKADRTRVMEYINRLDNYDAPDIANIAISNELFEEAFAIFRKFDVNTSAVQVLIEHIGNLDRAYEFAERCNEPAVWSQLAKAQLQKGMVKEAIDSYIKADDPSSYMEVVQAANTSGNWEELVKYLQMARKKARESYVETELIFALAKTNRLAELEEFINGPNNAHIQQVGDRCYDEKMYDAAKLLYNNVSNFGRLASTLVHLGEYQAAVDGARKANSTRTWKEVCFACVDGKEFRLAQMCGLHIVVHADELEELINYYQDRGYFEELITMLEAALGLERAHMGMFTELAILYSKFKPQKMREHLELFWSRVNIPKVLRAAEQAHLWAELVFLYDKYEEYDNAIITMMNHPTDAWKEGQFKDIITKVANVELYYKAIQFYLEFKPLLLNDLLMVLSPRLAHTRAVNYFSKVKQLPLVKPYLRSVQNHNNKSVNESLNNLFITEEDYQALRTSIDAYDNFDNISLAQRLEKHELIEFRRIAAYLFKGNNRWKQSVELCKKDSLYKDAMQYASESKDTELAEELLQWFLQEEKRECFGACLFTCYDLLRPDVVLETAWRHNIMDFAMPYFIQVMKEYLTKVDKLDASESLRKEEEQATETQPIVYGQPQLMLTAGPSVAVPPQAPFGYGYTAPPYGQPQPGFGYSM

fractional recovery (FR; recovery at 1150 mM salt / recovery at 150 mM salt) [1]	fractional recovery (FR; recovery at 1150 mM salt / recovery at 150 mM salt) (stonin2)	Molecule	further results
1		long-variant intersectin (natural protein)	
0.84		light chain clathrin (from UniProt P08081 1-248) (natural protein)	
	0.83	short-variant intersectin (natural protein, UniProt Q9WVE9-1 1-1217, looked up, intersectin (intersectin 1 by the antibody's name Intersectin/ESE-1), short variant, told from the long variant by the size of its band; endogenous in rat brain synaptosomes; they are told apart only as bands on the blot; not checked; also called S-intersectin; S-Int; source: endogenous, rat brain synaptosome lysate) MAQFPTPFGGSLDIWAITVEERAKHDQQFQSLKPISGFITGDQARNFFFQSGLPQPVLAQIWALADMNKDGRMDQVEFSIAMKLIKLKLQGYQLPPALPPVMKQQPAAISSAPAFGIGGMAGMPPLTAVAPVPMGSIPVVGMSPPLVSSVPQAAVPPLANGAPPVIQPLPAFAHPAATLPKSSSFSRSGPGSQLNTKLQKAQSFDVASAPAAAEWAVPQSSRLKYRQLFNSHDKTMSGHLTGPQARTILMQSSLPQAQLASIWNLSDIDQDGKLTAEEFILAMHLIDVAMSGQPLPPVLPPEYIPPSFRRVRSGSGMSVISSSSADQRLPEEPSSEDEQQVEKKLPVTFEDKKRENFERGNLELEKRRQALLEQQRKEQERLAQLERAEQERKERERQEQERKRQLELEKQLEKQRELERQREEERRKEIERREAAKRELERQRQLEWERNRRQELLTQRNKDQEGIVVLKARRKTLEFELEALNDKKHQLEGKLQDIRCRLATQRQEIESTNKSRELRIAEITHLQQQLQESQQMLGRLIPEKQILSDQLKQVQQNSLHRDSLLTLKRALEAKELARQQLREQLDEVEKETRSKLQEIDVFNNQLKELREIHSKQQLQKQRSIEAERLKQKEQERKSLELEKQKEEGQRRVQERDKQWQEHVQQEEQQRPRKPHEEDKLKREDSVKKKEAEERAKPEVQDKQSRLFHPHQEPAKPAQAPWPTTEKGPLTISAQESAKVVYYRALYPFESRSHDEITIQPGDIVMVKGEWVDESQTGEPGWLGGELKGKTGWFPANYAEKIPENEIPTPAKPVTDLTSAPAPKLALRETPAPLPVTSSEPSTTPNNWADFSSTWPSSTNEKPETDNWDTWAAQPSLTVPSAGQLRQRSAFTPATATGSSPSPVLGQGEKVEGLQAQALYPWRAKKDNHLNFNKSDVITVLEQQDMWWFGEVQGQKGWFPKSYVKLISGPVRKSTSIDTGPTEAPSSLKRVASPAAKPAIPGEEFVAMYTYESSEHGDLTFQQGDVIVVTKKDGDWWTGTVGETSGVFPSNYVRLKDSEGSGTAGKTGSLGKKPEIAQVIASYTATGPEQLTLAPGQLILIRKKNPGGWWEGELQARGKKRQIGWFPANYVKLLSPGTSKITPTELPKTAVQPAVCQVIGMYDYTAQNDDELAFSKGQIINVLSKEDPDWWKGEVSGQVGLFPSNYVKLTTDMDPSQQ	
		B1	fractional recovery (FR; recovery at 1150 mM salt / recovery at 150 mM salt) (AP180): 1 ± 0.17; fractional recovery (FR; recovery at 1150 mM salt / recovery at 150 mM salt) (heavy chain clathrin): 0.78
	0.98	synaptotagmin 1 (natural protein, UniProt P21707 1-421, looked up, synaptotagmin 1, endogenous in synaptosomes from brains of 2-10 day old Sprague Dawley rats; also called STG; STG 1; source: endogenous, rat brain synaptosome lysate) MVSASHPEALAAPVTTVATLVPHNATEPASPGEGKEDAFSKLKQKFMNELHKIPLPPWALIAIAIVAVLLVVTCCFCVCKKCLFKKKNKKKGKEKGGKNAINMKDVKDLGKTMKDQALKDDDAETGLTDGEEKEEPKEEEKLGKLQYSLDYDFQNNQLLVGIIQAAELPALDMGGTSDPYVKVFLLPDKKKKFETKVHRKTLNPVFNEQFTFKVPYSELGGKTLVMAVYDFDRFSKHDIIGEFKVPMNTVDFGHVTEEWRDLQSAEKEEQEKLGDICFSLRYVPTAGKLTVVILEAKNLKKMDVGGLSDPYVKIHLMQNGKRLKKKKTTIKKNTLNPYYNESFSFEVPFEQIQKVQVVVTVLDYDKIGKNDAIGKVFVGYNSTGAELRHWSDMLANPRRPIAQWHTLQVEEEVDAMLAVKK	

— publication PMC1762330, “‘Fractional Recovery’ Analysis of a Presynaptic Synaptotagmin 1-Anchored Endocytic Protein Complex” (PLoS ONE, 2006)
